The values that follow come from paper PMC5434536, “ING3 promotes prostate cancer growth by activating the androgen receptor” (BMC Medicine, 2017).

This assay deals with T1, HA-tagged TIP60 (pCIN4-FLAG-HA-TIP60) (UniProt Q92993 1-513).
T1 construct: TIP60 from the plasmid pCIN4-FLAG-HA-TIP60 (gift from Dr. Wei Gu)
The assay is described as follows: co-IP; cells co-transfected with AR, TIP60 and increasing amounts of ING3 plasmid + 10 nM MB for 24 h; AR or TIP60 immunoprecipitated with anti-AR or HA-affinity beads. To be noted: partners not purified.

T1 sequence (Q92993 whole entry): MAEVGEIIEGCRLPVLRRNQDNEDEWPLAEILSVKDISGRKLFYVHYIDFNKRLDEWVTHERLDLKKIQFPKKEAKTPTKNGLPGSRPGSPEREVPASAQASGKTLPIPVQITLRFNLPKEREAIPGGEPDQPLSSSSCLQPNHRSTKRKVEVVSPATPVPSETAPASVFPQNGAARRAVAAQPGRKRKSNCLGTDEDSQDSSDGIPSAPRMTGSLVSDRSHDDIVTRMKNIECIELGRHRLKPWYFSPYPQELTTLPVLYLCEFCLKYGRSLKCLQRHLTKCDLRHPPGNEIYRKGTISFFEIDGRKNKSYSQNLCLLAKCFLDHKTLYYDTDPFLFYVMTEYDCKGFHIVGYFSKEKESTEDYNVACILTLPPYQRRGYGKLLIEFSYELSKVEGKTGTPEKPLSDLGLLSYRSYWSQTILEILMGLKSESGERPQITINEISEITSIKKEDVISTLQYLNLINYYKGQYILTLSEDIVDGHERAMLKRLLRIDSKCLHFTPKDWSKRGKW

B1: Myc-tagged androgen receptor (pCMV-3myc-AR) (receptor, UniProt P10275 1-920, looked up)
chain: MEVQLGLGRVYPRPPSKTYRGAFQNLFQSVREVIQNPGPRHPEAASAAPPGASLLLLQQQQQQQQQQQQQQQQQQQQQQQETSPRQQQQQQGEDGSPQAHRRGPTGYLVLDEEQQPSQPQSALECHPERGCVPEPGAAVAASKGLPQQLPAPPDEDDSAAPSTLSLLGPTFPGLSSCSADLKDILSEASTMQLLQQQQQEAVSEGSSSGRAREASGAPTSSKDNYLGGTSTISDNAKELCKAVSVSMGLGVEALEHLSPGEQLRGDCMYAPLLGVPPAVRPTPCAPLAECKGSLLDDSAGKSTEDTAEYSPFKGGYTKGLEGESLGCSGSAAAGSSGTLELPSTLSLYKSGALDEAAAYQSRDYYNFPLALAGPPPPPPPPHPHARIKLENPLDYGSAWAAAAAQCRYGDLASLHGAGAAGPGSGSPSAAASSSWHTLFTAEEGQLYGPCGGGGGGGGGGGGGGGGGGGGGGGEAGAVAPYGYTRPPQGLAGQESDFTAPDVWYPGGMVSRVPYPSPTCVKSEMGPWMDSYSGPYGDMRLETARDHVLPIDYYFPPQKTCLICGDEASGCHYGALTCGSCKVFFKRAAEGKQKYLCASRNDCTIDKFRRKNCPSCRLRKCYEAGMTLGARKLKKLGNLKLQEEGEASSTTSPTEETTQKLTVSHIEGYECQPIFLNVLEAIEPGVVCAGHDNNQPDSFAALLSSLNELGERQLVHVVKWAKALPGFRNLHVDDQMAVIQYSWMGLMVFAMGWRSFTNVNSRMLYFAPDLVFNEYRMHKSRMYSQCVRMRHLSQEFGWLQITPQEFLCMKALLLFSIIPVDGLKNQKFFDELRMNYIKELDRIIACKRKNPTSCSRRFYQLTKLLDSVQPIARELHQFTFDLLIKSHMVSVDFPEMMAEIISVQVPKILSGKVKPIYFHTQ
notes: androgen receptor from the plasmid pCMV-3myc-AR (gift from Dr. Marja Nevalainen); pCMV-3myc-AR is the only full-length AR plasmid named; also called AR-Myc; Myc-tagged AR; source: HEK293T, transfected, in lysate
Consider B1, for which the “fold increase of the AR-TIP60 association (ratio AR:HA-TIP60) with co-transfected ING3 against without” value is around 8 fold.
